Paper PMC11362306

Target: BLIP2 with azF at residue 41 (BLIP2^41azF)
Experiment: CNT-FET conductance (I-V); BLIP2 azF variant photochemically attached to p-type SWCNTs of a CNT-FET; BL (or BSA) added in DPBS, to 1.4 μM or stepwise; I-V curves, room temperature; also with 0.5% (w/v) BSA for TEM-1 on BLIP2^213azF

TEM-1 β-lactamase (from UniProt P62593 24-286) (enzyme)
conductance increase, fold lower than on BLIP2^213azF devices: 4 fold
